Entries after “also recorded” stand apart in the source; their conditions may differ.

Assay [1] deals with T1, Uch-L1 (Mus musculus, UniProt Q9R0P9).
T1 construct: hippocampal tissue was treated with tissue protein extraction reagent; from tissue; host or cells: mouse hippocampal slices (C57/BL6 or APP/PS1 and WT littermates)
T1 sequence (Q9R0P9 1-220): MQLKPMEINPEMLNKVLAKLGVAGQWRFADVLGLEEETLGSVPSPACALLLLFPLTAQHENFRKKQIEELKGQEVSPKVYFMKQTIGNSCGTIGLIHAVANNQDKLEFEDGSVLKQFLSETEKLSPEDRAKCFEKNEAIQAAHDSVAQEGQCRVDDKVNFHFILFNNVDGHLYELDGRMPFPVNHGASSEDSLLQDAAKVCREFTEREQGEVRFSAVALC
The assay is described as follows: Hydrolase (ubiquitin-AMC) assay on hippocampi of injected mice. In kind it is in vivo. How it is done: (§1) Measurement of Hydrolase Activity: The hydrolase assay was performed as previously described (Nishikawa et al., 2003) with slight modifications. Briefly, hippocampal tissue was treated with tissue protein extraction reagent (T-PER; Pierce) containing freshly added EDTA-free protease inhibitors. Homogenate was centrifuged at 10,000 rpm for 5 min. Protein concentration was measured in the supernatant using the BCA protein assay reagent. In some experiments hydrolysis was initiated by adding 10 μl of 20 nM Uch-L1 or Uch-L3 (Boston Biochem). The hydrolase assay was performed using fluorogenic ubiquitin-7-amino-4-methylcoumarin (ubiquitin-AMC) (Boston Biochem) as a substrate. The substrate was diluted in assay buffer (50 mM Tris-HCL, 0.5 mM EDTA, 5 mM dithiothreitol and 0.1 mg/ml ovalbumin, pH 7.6). Each reaction mixture containing 400 nM substrate and 100 μg enzyme sample was incubated for 5 min at room temperature. The reaction was monitored using a fluorescence spectrophotometer (CytoFluor Series 4000, ABI Inc) at 25° C. The free AMC fluorophore was excited at 380 nm and measured at 460 nm. Hydrolase activity was expressed as relative fluorescence intensity/min (Dang et al., 1998). In some experiments, hydrolysis was also measured on the soluble and insoluble fractions (FIG. 28D). In a group of experiments hydrolysis was measured by mixing ubiquitin-AMC with 20 nM TAT fusion proteins (FIG. 27C). In other experiments the substrate was Nedd8-AMC (Boston Biochem). LDN-57444 was purchased from Calbiochem.

Another assay concerns Aβ42. The assay is described as follows: Quantification of amyloid peptides by ELISA in APP/PS1 mice. In kind it is in vivo, mouse. As to conditions: for cortex Aβ levels / hippocampal Aβ levels: 0.02-0.04 g/kg i.p.; for Aβ levels in APP/PS1 mice (words): single injection 0.02-0.04 g/kg i.p.
Another assay relates to monoubiquitin. The assay is described as follows: Monoubiquitin levels (quantitative Western blot). It counts as cell-based, mouse. As to the method:
Western Blotting: Protein levels were assessed using standard procedures. Protein extraction was performed using buffer with and without detergent. For the extraction of protein using detergent, hippocampal tissues and cultured hippocampal neurons (5 DIV) were homogenized in RIPA buffer (50 mM Tris-HCl pH 7.4, 1% Triton X-100, 1% sodium deoxycholate, 0.1% SDS, 150 mM sodium chloride, 10 mM sodium fluoride, 30 mM sodium pyrophosphate, 50 mM sodium orthovanadate) containing 1× complete protease inhibitor (Roche) and 1 mM phenylmethylsulfonyl fluoride (PMSF). For extraction of proteins without detergent, hippocampal extracts were homogenized with disposable dounce homogenizers in buffer A, containing 10 mM HEPES pH 7.3, 300 mM sucrose, protease 1× complete protease inhibitor (Roche) and PMSF. After centrifugation at 10,000×g supernatant proteins were resolved on a 8% or 4-20% gradient Tris-Glycine gel, transferred onto PVDF or nitrocellulose membrane and blocked in 5% skim milk in PBS-Tween 0.1% (PBS-T). Membranes were probed with primary antibodies, and after washing with PBS-T incubated with an appropriate HRP-conjugated secondary antibody. The following antibodies were used: mouse monoclonal anti-ubiquitin (Chemicon), rabbit polyclonal anti-pCREB (Upstate Biotech.), rabbit polyclonal anti-PKA-RIIα (Santa Cruz Biotech. Inc), mouse monoclonal anti-Uch-L1 (Novocastra), monoclonal mouse anti-HA (Santa Cruz Biotech. Inc), and anti-PKA IIα. Detection was performed using HRP-conjugated secondary antibodies (Pierce, Rockford, Ill.). To control loading and transfer, protein immunoreactivities were normalized against total extracellular signal-regulated protein kinases (ERK1/2) levels with a rabbit analyzed using a rabbit polyclonal anti-ERK1/2 antibody (Cell Signaling Technology, Inc). NIH IMAGE was used to analyze the scanned blots and quantify the intensity of the protein signals.

A further assay has as its system PKA. The assay is described as follows: PKA kinase activity in hippocampal slices. In kind it is cell-based, mouse.
In assay [2] the test system is Uch-L1. As to the kind of experiment: Hydrolase (ubiquitin-AMC) assay on hippocampi of injected mice. In kind it is in vivo, mouse. As to conditions: 0.02-0.04 g/kg, i.p. How it is done:
as §1

Where [3] appears, read: 0.4 mg/kg, sacrificed 4 hrs after injection.
[4] abbreviates: 3-5 month old APP/PS1 mice, sacrificed 3 weeks after injection.
[5] abbreviates: 4 month old APP/PS1 mice, sacrificed 4 hrs after injection.
Where [6] appears, read: 4 hrs after injection, 4 month old APP/PS1 mice.

Turning to `CC(=O)O/N=C1\C(=O)N(Cc2cc(Cl)ccc2Cl)c2ccc(Cl)cc21` [LDN-57444, reference compound], at Uch-L1 [1] (setting [3]), the “Ubiquitin-C-Terminal hydrolase activity in hippocampi” value is “decreased” and the Uch-L1 activity is reported as 65 % of vehicle injected controls. Besides, the “recovery of hydrolase activity” value at Uch-L1 [1] (single i.p. injection 0.4 mg/kg) was not above 8 h. Besides, the “maximal inhibition of hydrolase activity” value at Uch-L1 [1] (single i.p. injection 0.4 mg/kg, 30 minutes post-injection) was ~40 % of control.

B1: TAT-HA-Uch-L1: fusion protein: 11-amino acid transduction domain of HIV-transactivator protein (TAT) fused with an HA tag and human Uch-L1 (protein)
chain: MQLKPMEINPEMLNKVLSRLGVAGQWRFVDVLGLEEESLGSVPAPACALLLLFPLTAQHENFRKKQIEELKGQEVSPKVYFMKQTIGNSCGTIGLIHAVANNQDKLGFEDGSVLKQFLSETEKMSPEDRAKCFEKNEAIQAAHDAVAQEGQCRVDDKVNFHFILFNNVDGHLYELDGRMPFPVNHGASSEDTLLKDAAKVCREFTEREQGEVRFSAVALCKAA
modifications: left off: small tags and cut ends
On to B1, for which the “cortex Aβ levels” value in the assay with Aβ42 (setting [4]) worked out at 90.28±17.38 pmol/mg protein; in the assay on Aβ42 (setting [5]), 4.17±0.68 pmol/mg protein. In addition, the figures for the “hippocampal Aβ levels” value in the assay with Aβ42 (setting [4]) and in the assay with Aβ42 (setting [5]) were 178.60±18.24 pmol/mg protein and 6.35±0.54 pmol/mg protein, respectively. Moreover, the “cortical Aβ42” value in the assay with Aβ42 (setting [6]) is given as “about 104%”; in the assay on Aβ42 (mice tested for fear conditioning over 21 days), “about 103%”. Besides, in the assay with Aβ42 (setting [6]), the “hippocampal Aβ42” value is recorded as “about 94 % that of vehicle-treated APP/PS1 mice”. Also, the “Aβ levels in APP/PS1 mice (words)” value in the assay with Aβ42 was “no difference in Aβ42 levels; also recorded: did not change Aβ levels”; with Aβ42 (listed as Uch-L1 fusion protein) it was “did not change Aβ levels”. Further, the mono-ubiquitin levels with monoubiquitin (20 nM fusion protein 1 hour, then 200 nM oligomeric Aβ plus fusion protein 20 min) was 90.25±17.25 % of control; in the assay on monoubiquitin (fusion protein alone), 121.03±14.69 % of control. In addition, the “monoubiquitin levels” value with monoubiquitin (fusion protein 20 nM 1 hr pre-incubation plus Aβ) is recorded as “normal monoubiquitin levels; also recorded: blocks the decrease of monoubiquitin levels”; with monoubiquitin (fusion protein 20 nM 1 hr pre-incubation plus Aβ, listed as TAT-A-Uch-L1 peptide), “annulled the decrease”; in the assay with monoubiquitin (fusion protein 20 nM 1 hr pre-incubation plus Aβ, listed as TAT-Uch-L1 fusion protein), “re-establishes normal mono-ubiquitin levels”; in the assay with monoubiquitin (substance alone), “slight increase”. For the same molecule, the PKA activity with PKA (20 nM TAT-HA-Uch-L1 1 hr, then 200 nM Aβ plus TAT-HA-Uch-L1 20 min) is recorded as 89.21±3.21%. Besides, in the assay with PKA (fusion protein 20 nM 1 hr pre-incubation, 200 nM Aβ 20 min), the “PKA activity in Aβ-treated slices” value is reported as “blocked the reduction; also recorded: increased levels of kinase activity”. The “total Uch activity in APP/PS1 mice” value in the assay with Uch-L1 [2] is recorded as “returned to control levels; also recorded: re-established normal total Uch activity”. Further, the “total Uch activity in WT mice” value with Uch-L1 [2] was “increased above control level; also recorded: increased total Uch activity”.
